Test [1] addresses T1, human B-cell associated protein-37 (human BAP-37) (human, UniProt O35129 1-299 (mouse entry), limits assumed). Nature of the test: cell-based or functional assay.
For test [2], the target named is T1, human B-cell associated protein-37 …. The test is described as follows: cell-based or functional assay. This is another data set of the same source.

T1 sequence (O35129 whole entry): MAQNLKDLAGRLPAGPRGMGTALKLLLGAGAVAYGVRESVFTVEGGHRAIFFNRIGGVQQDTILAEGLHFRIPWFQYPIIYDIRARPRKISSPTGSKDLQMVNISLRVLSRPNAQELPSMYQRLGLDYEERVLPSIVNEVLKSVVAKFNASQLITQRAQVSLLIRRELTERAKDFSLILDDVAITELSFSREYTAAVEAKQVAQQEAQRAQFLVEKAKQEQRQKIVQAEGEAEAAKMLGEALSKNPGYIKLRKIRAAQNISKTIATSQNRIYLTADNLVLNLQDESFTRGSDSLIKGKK

Regarding TGVHVELQINRSIMHYISSP [peptide CL08wt], the “endogenous epsilon inhibition ratio (TAQMAN quantitative PCR, +IL-4/+Dox to +IL-4/-Dox)” value in test [1] worked out at 2.15. Moreover, the “Reporter Ratio (A5T4 reporter line, IL-4 induced germline epsilon transcription)” value (“Reporter Ratio” for short) in test [2] is 1.39. As for TGVHVELQIAASIMHYISSP [peptide CL08NR], the “Reporter Ratio” value in test [2] was determined as 1.6. For TGAAVELQINRSIMHYISSP [peptide CL08VH], the “Reporter Ratio” value in test [2] stood at 1.17.

For the origin of these results see patent publication US20040014649A1 (RIGEL PHARMACEUTICALS, published 2004).
